# From the RNAGym collection of RNA variant scans (doi:10.1021/acssynbio.7b00057)
# B1: Pistol ribozyme (parent)
# chain: GGGUCGUUGUUCCAUAAUCGCGUGGAUAUGGCACGCAAGUUUCUACCGGGCACCGUAAAUGUCCGACUGGAGCCGUUCGGGCGGCUAUAAACAGACCUCAGGCCCGAAGCGUGGCGGCACCUGCCGCCGGUGGUAAAAAAGAUCGGAAGAGCACACGUCU
# Variants of: B1
# Test: aptazyme ON/OFF ratio, guanine; higher = stronger switching; co-transcriptional cleavage with and without guanine
row,Variant,aptazyme ON/OFF ratio
1,U8G G9C U10C C13U,1.07
2,U8G G9C U10C C13G,1.04
3,U8G G9C U10C C13A,1.03
4,U8G G9U U10A U11C C12U C13G,1.05
5,U8G G9U U10A U11C C12U C13U,1.05
6,U8G G9U U10A U11C C12U C13A,1.08
7,U8G G9U U10A U11G,1.16
8,U8G G9U U10A U11A,1.59
9,U8G G9U U10A U11C,1.01
10,U8G G9U U10C U11G C12G C13A,1.15
11,U8G G9U U10C U11G C12G C13G,1.14
12,U8G G9U U10C U11G C12G C13U,1.08
13,U8G G9U U10C U11A C13G,1.04
14,U8G G9U U10C U11A C13U,1.12
15,U8G G9U U10C U11A C13A,1.06
16,U8G G9U U10A U11G C12U,1.24
17,U8G G9U U10A U11G C12G,1.27
18,U8G G9U U10A U11G C12A,1.12
19,U8G G9C U10C U11A C12A C13U,1.05
20,U8G G9C U10C U11A C12A C13A,1.06
21,U8G G9C U10C U11A C12A C13G,1.07
22,U8G G9U U10C U11G C12A C13G,1.11
23,U8G G9U U10C U11G C12A C13U,1.12
24,U8G G9U U10C U11G C12A C13A,1.14

row,Variant,aptazyme ON/OFF ratio
1,U8G G9C U10C C12G C13A,1.16
2,U8G G9C U10C C12G C13U,1.08
3,U8G G9C U10C C12G C13G,1.06
4,U8G G9U U10A C12G C13G,1.12
5,U8G G9U U10A C12G C13A,1.2
6,U8G G9U U10A C12G C13U,1.23
7,U8G G9U U10C U11C C12A C13U,1.02
8,U8G G9U U10C U11C C12A C13A,1.05
9,U8G G9U U10C U11C C12A C13G,1.1
10,U8G G9U U10A U11A C12U C13A,1.14
11,U8G G9U U10A U11A C12U C13U,1.15
12,U8G G9U U10A U11A C12U C13G,1.11
13,U8G G9C U10C U11A C13G,1.05
14,U8G G9C U10C U11A C13U,1.1
15,U8G G9C U10C U11A C13A,1.09
16,U8G G9C U10G U11C C13U,1.04
17,U8G G9C U10G U11C C13G,1.02
18,U8G G9C U10G U11C C13A,1.05
19,U8G G9C U11A C13U,1.05
20,U8G G9C U11A C13G,1.03
21,U8G G9C U11A C13A,1.04
22,U8G G9U U10A C12A C13G,1.18
23,U8G G9U U10A C12A C13A,1.21
24,U8G G9U U10A C12A C13U,1.25

row,Variant,aptazyme ON/OFF ratio
1,U8G G9C U10G U11G C12G C13G,1.1
2,U8G G9C U10G U11G C12G C13A,1.24
3,U8G G9C U10G U11G C12G C13U,1.3
4,U8G G9U U10C U11C C12U C13U,1.06
5,U8G G9U U10C U11C C12U C13G,1.02
6,U8G G9U U10C U11C C12U C13A,1.02
7,U8G G9C U10C U11G C12G C13G,1.11
8,U8G G9C U10C U11G C12G C13U,1.08
9,U8G G9C U10C U11G C12G C13A,1.08
10,U8G G9U U10C U11C C12A,1.04
11,U8G G9U U10C U11C C12U,1.03
12,U8G G9U U10C U11C C12G,1.02
13,U8G G9C U11G C13G,1.04
14,U8G G9C U11G C13A,1.05
15,U8G G9C U11G C13U,1.06
16,U8G G9C U11A C12A,1.11
17,U8G G9C U11A C12G,1.07
18,U8G G9C U11A C12U,1.05
19,U8G G9C U11C C12U C13A,1.03
20,U8G G9C U11C C12U C13U,1.04
21,U8G G9C U11C C12U C13G,1.03
22,U8G G9U U10A U11C C12G C13A,1.08
23,U8G G9U U10A U11C C12G C13U,1.11
24,U8G G9U U10A U11C C12G C13G,1.11

row,Variant,aptazyme ON/OFF ratio
1,U8G G9C U11C C12G C13A,1.03
2,U8G G9C U11C C12G C13G,1.05
3,U8G G9C U11C C12G C13U,1.04
4,U8G G9U U10C U11A,1.27
5,U8G G9U U10C U11G,1.15
6,U8G G9U U10C U11C,1.05
7,U8G G9U U10C U11C C12G C13A,1.07
8,U8G G9U U10C U11C C12G C13U,1.09
9,U8G G9U U10C U11C C12G C13G,1.1
10,U8G G9C U11C C12A C13U,1.04
11,U8G G9C U11C C12A C13A,1.04
12,U8G G9C U11C C12A C13G,1.04
13,U8G G9U U10C U11G C12U,1.19
14,U8G G9U U10C U11G C12G,1.25
15,U8G G9U U10C U11G C12A,1.12
16,U8G G9C U10G U11A C13A,1.05
17,U8G G9C U10G U11A C13U,1.06
18,U8G G9C U10G U11A C13G,1.03
19,U8G G9C U10G U11A C12A C13U,1.11
20,U8G G9C U10G U11A C12A C13A,1.12
21,U8G G9C U10G U11A C12A C13G,1.11
22,U8G G9C U11A C12G C13U,1.07
23,U8G G9C U11A C12G C13G,1.1
24,U8G G9C U11A C12G C13A,1.08

row,Variant,aptazyme ON/OFF ratio
1,U8G G9U U10C,1.51
2,U8G G9U U10G,1.07
3,U8G G9U U10A,1.2
4,U8G G9C U10G U11C C12G,1.03
5,U8G G9C U10G U11C C12A,1.05
6,U8G G9C U10G U11C C12U,1.03
7,U8G G9C U10C U11G C12U C13A,1.04
8,U8G G9C U10C U11G C12U C13G,1.1
9,U8G G9C U10C U11G C12U C13U,1.07
10,U8G G9U U10A C13A,1.1
11,U8G G9U U10A C13G,1.06
12,U8G G9U U10A C13U,1.09
13,U8G G9U U10C U11G C13A,1.04
14,U8G G9U U10C U11G C13U,1.03
15,U8G G9U U10C U11G C13G,1.03
16,U8G G9U U10A U11C C12A C13G,1.1
17,U8G G9U U10A U11C C12A C13A,1.1
18,U8G G9U U10A U11C C12A C13U,1.16
19,U8G G9U U10C U11A C12U C13G,1.11
20,U8G G9U U10C U11A C12U C13U,1.08
21,U8G G9U U10C U11A C12U C13A,1.08
22,U8G G9U U10A U11G C12U C13U,1.13
23,U8G G9U U10A U11G C12U C13A,1.05
24,U8G G9U U10A U11G C12U C13G,1.1

row,Variant,aptazyme ON/OFF ratio
1,U8G G9C U10G,1.19
2,U8G G9C U10C,1.08
3,U8G G9C U11C C12A,1.05
4,U8G G9C U11C C12G,1.04
5,U8G G9C U11C C12U,1.04
6,U8G G9U U10A U11G C13U,1.04
7,U8G G9U U10A U11G C13G,1.03
8,U8G G9U U10A U11G C13A,1.09
9,U8G G9C U10G U11G C12U C13G,1.14
10,U8G G9C U10G U11G C12U C13A,1.16
11,U8G G9C U10G U11G C12U C13U,1.28
12,U8G G9C U10G C12A C13G,1.09
13,U8G G9C U10G C12A C13U,1.15
14,U8G G9C U10G C12A C13A,1.11
15,U8G G9C U10C U11C C12G,1.06
16,U8G G9C U10C U11C C12U,1.06
17,U8G G9C U10C U11C C12A,1.05
18,U8G G9U U10A U11A C12G C13G,1.18
19,U8G G9U U10A U11A C12G C13A,1.2
20,U8G G9U U10A U11A C12G C13U,1.22
21,U8G G9U U10A U11G C12A C13U,1.12
22,U8G G9U U10A U11G C12A C13G,1.06
23,U8G G9U U10A U11G C12A C13A,1.05
24,U8G G9C U10G C12G C13U,1.17

row,Variant,aptazyme ON/OFF ratio
1,U8G G9C U10G C12G C13G,1.08
2,U8G G9C U10G C12G C13A,1.08
3,U8G G9C U10C U11C C13G,1.01
4,U8G G9C U10C U11C C13A,1.06
5,U8G G9C U10C U11C C13U,1.03
6,U8G G9C U11G C12G C13G,1.07
7,U8G G9C U11G C12G C13A,1.09
8,U8G G9C U11G C12G C13U,1.11
9,U8G G9U U10C U11C C13G,1.04
10,U8G G9U U10C U11C C13U,1.02
11,U8G G9U U10C U11C C13A,1.04
12,U8G G9C U11G C12G,1.15
13,U8G G9C U11G C12A,1.11
14,U8G G9C U11G C12U,1.22
15,U8G G9U U10C C12A C13A,1.2
16,U8G G9U U10C C12A C13G,1.15
17,U8G G9U U10C C12A C13U,1.15
18,U8G G9C U10C U11A C12U C13G,1.02
19,U8G G9C U10C U11A C12U C13U,1.04
20,U8G G9C U10C U11A C12U C13A,1.04
21,U8G G9C U10C C12A C13A,1.05
22,U8G G9C U10C C12A C13G,1.06
23,U8G G9C U10C C12A C13U,1.05
